According to patent US20210386836:

Assays:
[1] = biological target: T1, C-Reactive protein, P02741
T1 chain: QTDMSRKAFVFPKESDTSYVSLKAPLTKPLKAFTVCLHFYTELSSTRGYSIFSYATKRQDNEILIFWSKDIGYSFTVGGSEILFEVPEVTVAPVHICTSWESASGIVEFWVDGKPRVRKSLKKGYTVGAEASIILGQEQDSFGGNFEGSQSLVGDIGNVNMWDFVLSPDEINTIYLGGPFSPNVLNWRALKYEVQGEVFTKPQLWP

C1 inhibitor, P05155 = biological target: T2, C1 inhibitor, P05155
T2 chain: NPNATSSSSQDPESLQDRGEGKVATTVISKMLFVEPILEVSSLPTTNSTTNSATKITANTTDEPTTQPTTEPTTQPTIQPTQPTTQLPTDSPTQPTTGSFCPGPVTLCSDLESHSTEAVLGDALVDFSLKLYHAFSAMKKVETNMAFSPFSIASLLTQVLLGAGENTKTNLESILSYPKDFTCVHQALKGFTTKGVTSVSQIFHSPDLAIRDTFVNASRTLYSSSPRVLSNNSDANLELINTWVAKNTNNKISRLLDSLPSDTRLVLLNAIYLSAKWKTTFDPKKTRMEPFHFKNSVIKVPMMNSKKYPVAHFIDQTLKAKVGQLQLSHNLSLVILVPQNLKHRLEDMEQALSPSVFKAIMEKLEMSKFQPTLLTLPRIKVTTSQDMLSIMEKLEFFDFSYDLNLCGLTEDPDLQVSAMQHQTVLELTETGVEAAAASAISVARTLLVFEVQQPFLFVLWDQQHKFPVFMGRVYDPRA

C2a, P06681 = biological target: T3, C2a, P06681
T3 chain: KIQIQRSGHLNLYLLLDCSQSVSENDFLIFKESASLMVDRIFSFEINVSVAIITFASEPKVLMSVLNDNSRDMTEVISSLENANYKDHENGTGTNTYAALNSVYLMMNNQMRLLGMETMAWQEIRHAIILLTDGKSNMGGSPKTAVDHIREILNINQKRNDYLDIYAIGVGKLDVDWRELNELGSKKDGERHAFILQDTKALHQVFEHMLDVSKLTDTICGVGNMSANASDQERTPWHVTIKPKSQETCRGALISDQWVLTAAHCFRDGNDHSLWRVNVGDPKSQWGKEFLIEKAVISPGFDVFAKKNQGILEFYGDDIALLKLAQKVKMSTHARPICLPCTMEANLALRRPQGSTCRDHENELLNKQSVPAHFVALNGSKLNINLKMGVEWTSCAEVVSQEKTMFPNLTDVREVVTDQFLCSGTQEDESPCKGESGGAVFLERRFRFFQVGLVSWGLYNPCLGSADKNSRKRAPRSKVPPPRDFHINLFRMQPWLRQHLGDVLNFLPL

[2] = biological target: T4, C4-Binding protein, P04003
T4 chain 1: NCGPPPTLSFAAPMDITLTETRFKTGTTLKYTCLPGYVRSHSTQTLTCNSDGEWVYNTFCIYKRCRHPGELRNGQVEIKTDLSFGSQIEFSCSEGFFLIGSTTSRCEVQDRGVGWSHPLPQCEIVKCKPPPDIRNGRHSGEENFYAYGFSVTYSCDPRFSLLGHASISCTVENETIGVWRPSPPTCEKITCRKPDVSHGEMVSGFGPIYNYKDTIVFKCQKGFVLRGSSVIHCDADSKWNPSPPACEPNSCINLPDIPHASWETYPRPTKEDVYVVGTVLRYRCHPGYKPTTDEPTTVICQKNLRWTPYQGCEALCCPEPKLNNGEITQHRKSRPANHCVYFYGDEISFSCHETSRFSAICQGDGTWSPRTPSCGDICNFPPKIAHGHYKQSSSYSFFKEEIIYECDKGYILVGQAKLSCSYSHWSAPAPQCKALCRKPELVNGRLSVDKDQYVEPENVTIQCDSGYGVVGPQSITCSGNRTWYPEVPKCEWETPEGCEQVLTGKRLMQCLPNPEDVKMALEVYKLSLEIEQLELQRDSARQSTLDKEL
T4 chain 2: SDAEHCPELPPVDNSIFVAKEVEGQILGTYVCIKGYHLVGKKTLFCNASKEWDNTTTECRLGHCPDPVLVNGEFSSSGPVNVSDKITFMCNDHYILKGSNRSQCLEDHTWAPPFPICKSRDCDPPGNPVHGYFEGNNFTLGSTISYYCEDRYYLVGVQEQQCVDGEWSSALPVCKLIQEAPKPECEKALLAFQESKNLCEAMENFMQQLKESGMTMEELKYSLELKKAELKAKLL

human C5a, P01031 = biological target: T5, human C5a, P01031
T5 chain: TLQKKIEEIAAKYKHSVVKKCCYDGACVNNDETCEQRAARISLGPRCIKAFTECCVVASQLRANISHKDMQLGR

β-casein = biological target: T6, β-casein
T6 sequence (P02666 16-224, species assumed, looked up): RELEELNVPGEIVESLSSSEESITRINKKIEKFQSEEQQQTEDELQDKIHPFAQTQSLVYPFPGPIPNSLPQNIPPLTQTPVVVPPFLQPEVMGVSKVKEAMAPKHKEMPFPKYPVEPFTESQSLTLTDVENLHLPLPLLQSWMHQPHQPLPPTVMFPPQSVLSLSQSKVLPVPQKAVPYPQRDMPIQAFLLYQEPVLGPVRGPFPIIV

B1: PrtV(Pro-B) (protein)
chain: DTVNGSESVKTEATQASGSSVQDNATAKTTVTTNSNSSNNVSNVQTDTVKEAATSNVDSVASQNQATTAQQAKTTADTADQTVPPTTYKDHVKGNVQTAWDNGYKGQGMVVAVIDSGADTNHKDFSKAPESPAISKEDADKKISELGYGKYASEKFPFVYNYASRDNNWVKDDGPDASEHGQHVAGIIGADGQPNGNERYAVGVAPETQLMMMRVFNDQFADENTDDIAQAIYDAVKLGANVIQMSLGQGVAAANLNDVEQKAVEYATQHGVFVSISASNNGNSASVTGEEVPYKPGGADGNFEPFSSSTVANPGASRNAMTVAAENSVVGAGDDMADFSSWGPLQDFTLKPDVSAPGVSVTSTGNDNRYNTMSGTSMAGPFNAGVAALVMQRLKATTNLNGADLVQATKALIMNTAKPMTQQGYDTPVSPRRQGAGEIDAGAATESPVYVVAADGTSSVSLRKVGDSTQFALTFKNLSDKDQTYTFDDFGGGLTEVRDADTGTFHDVYLAGAHVYGNKTVTVKAGQSATYNFTLSLTGLKENQLVEGWLRFVGNDGQNQLVVPYLAYYGDMTSEDVFDKAANQEGTVYGGNYFVNEDNYPRGVADEDSLKALVNLEGNYNWQQVAKLYQDGKVAFSPNADGKSDLLKPYAFVKQNLKDLKVEVLDKSGKVVRVVADEQGLDKSYYESGVNKDVTLSVSMRNNPNTLAWDGKVYDDKAGEMVNAADGEYTYRYVATLYNDGVNKVQTADYPVVIDTTAPVLSNVKYDAATHTLSFDYKDTGSGFTDYSYAVVKVNDKTFGYKLNDGKNSKFLDAAKTSGTFKAVLGSDTLAALTAAKNALSVAVSDVADNTSTVTLLVNGNNDATTKVSVWNATNGLELDQSSPDYQAATSTYNLRGNATSDFYYNGALVQVDNSGNFVVPVSTSDTAVVFTSDAAGKNVVYKLNTATPKAVFAWQVNNTVKENFGIVLDTVVSNNKDDVVVQAAVTKGDNVEAYARDYFTGAVYKADVKDGLATFHVKVTNNSGRTVLLGWTEVVGPTFNDVQRTSANGVYLGVDTDTENPTPAPAFTSADQLGTNVVQEKADSATIGNPGDLPGHSLKDLTTRADANPDIHFDYLKDNDYNWVGAQAVKDGVYNPSTQVFTLTGKVDPNVKSLVVLGDSYNEDDPVNKVNLNSDGTFSFQFHTAPTSQRPVAYIYTKDDGSTTRGTMELILDTVLPTLSLNNVANLQLDSNGDYQVYTNNKDFSVSGEATDNLDGYRFFFNGDNDYREFHNSGVNFVAEAHQDGSTVTNPYPAYKFSKTFNLADATGETTHVYTLSVVDLTGNTVTRKFYVHY
[1]
  proteolytic activity (SDS-PAGE): None of the complement proteins tested show evidence of breakdown
C1 inhibitor, P05155
  proteolytic activity (SDS-PAGE): None of the complement proteins tested show evidence of breakdown
C2a, P06681
  proteolytic activity (SDS-PAGE): None of the complement proteins tested show evidence of breakdown
C3, P01024
  proteolytic activity (SDS-PAGE): None of the complement proteins tested show evidence of breakdown
C3a, P01024
  protein cleavage assay (SDS-PAGE): has activities against
  proteolytic activity (control of enzyme stock): shown to be active against C3a
C4
  proteolytic activity (SDS-PAGE): None of the complement proteins tested show evidence of breakdown
[2]
  proteolytic activity (SDS-PAGE): None of the complement proteins tested show evidence of breakdown
Factor B, P00751
Sequence of Factor B, P00751 (P00751 26-764): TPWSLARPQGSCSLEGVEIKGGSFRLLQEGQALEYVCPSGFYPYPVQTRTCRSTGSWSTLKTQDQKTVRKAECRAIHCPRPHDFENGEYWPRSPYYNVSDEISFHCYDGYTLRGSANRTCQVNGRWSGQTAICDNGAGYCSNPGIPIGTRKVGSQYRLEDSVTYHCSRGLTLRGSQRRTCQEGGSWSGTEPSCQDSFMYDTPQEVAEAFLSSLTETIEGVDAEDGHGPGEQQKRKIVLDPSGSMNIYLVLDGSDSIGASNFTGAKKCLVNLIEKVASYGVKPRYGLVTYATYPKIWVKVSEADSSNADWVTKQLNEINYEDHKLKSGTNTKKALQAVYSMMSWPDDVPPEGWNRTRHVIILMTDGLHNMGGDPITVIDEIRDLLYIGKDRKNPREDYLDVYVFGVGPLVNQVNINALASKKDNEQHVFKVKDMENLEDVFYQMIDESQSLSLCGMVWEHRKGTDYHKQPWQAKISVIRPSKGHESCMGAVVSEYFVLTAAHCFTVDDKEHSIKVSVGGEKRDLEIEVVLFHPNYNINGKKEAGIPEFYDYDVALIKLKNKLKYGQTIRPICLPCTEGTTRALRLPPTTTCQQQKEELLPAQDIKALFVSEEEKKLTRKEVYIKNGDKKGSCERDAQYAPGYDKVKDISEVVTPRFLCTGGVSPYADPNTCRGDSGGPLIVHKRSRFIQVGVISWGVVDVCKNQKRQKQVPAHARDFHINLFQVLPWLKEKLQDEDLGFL
  proteolytic activity (SDS-PAGE): None of the complement proteins tested show evidence of breakdown
IL-17
  protein cleavage assay (SDS-PAGE): has activities against
Properidin, P27918
Sequence of Properidin, P27918 (P27918 28-469): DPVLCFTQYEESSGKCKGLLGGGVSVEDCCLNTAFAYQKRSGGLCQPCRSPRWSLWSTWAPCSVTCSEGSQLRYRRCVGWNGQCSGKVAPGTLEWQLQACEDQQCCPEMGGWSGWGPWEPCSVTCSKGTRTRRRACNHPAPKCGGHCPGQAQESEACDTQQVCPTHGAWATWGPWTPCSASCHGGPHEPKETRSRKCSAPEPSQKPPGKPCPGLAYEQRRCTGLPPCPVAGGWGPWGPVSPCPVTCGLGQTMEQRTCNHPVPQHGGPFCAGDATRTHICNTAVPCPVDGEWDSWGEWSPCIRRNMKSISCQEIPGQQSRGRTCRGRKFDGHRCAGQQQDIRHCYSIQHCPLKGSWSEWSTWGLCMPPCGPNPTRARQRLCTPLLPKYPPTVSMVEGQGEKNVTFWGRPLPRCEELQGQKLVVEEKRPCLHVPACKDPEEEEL
  proteolytic activity (SDS-PAGE): None of the complement proteins tested show evidence of breakdown
TNF-α
  protein cleavage assay (SDS-PAGE): has activities against
Cytochrome C
  digestion (SDS-PAGE): did not digest
fibrinogen
  digestion (SDS-PAGE): did not digest
haemoglobin
  digestion (SDS-PAGE): did not digest
Human C5a, P01031
  protein cleavage assay (SDS-PAGE): has activities against
lysozyme
  digestion (SDS-PAGE): did not digest
α-casein
  casein activity assay (SDS-PAGE): cleaving only α-casein in a limited manner
β-casein
  casein activity assay (SDS-PAGE): cleaving only α-casein in a limited manner
κ-casein
  casein activity assay (SDS-PAGE): cleaving only α-casein in a limited manner
